Results reported in PMC4604771, “A novel eurythermic and thermostale lipase LipM from Pseudomonas moraviensis M9 and its application in the partial hydrolysis of algal oil” (BMC Biotechnology, 2015).

Substrate: CCCCCCCC(=O)Oc1ccc([N+](=O)[O-])cc1
Assay: p-nitrophenol release, Lineweaver-Burk plot
Assay type: biochemical, Pseudomonas moraviensis
Conditions: 50 mM Tris-HCl, pH 8.0, 65 °C, 0.01-2 mM substrate

B1: LipM (Pseudomonas moraviensis) (protein)
chain: MGLFDYRNADGKALYSDAIALTLYAYAPTGEPLPATAWAPVAATALGYQGKVGPQGTFFGEQDGYTSAEAEVLGKYDAAGKLIGIGIAFRGTGGLGYSDTYGDMKNNLLAAFGPSDYASHYAKNAFDHLLKAVAAFAIANGIAAQDVLISGHSLGGLGVNSVAELSASHWGGFFKDANYIAFASPTQSSTGSNVLNIGYENDPVFRALDGTTFSSGSLGKHDGAHDSTTDNIVNFTDNYASTAQNLVPFSIVNPLNWSAHSSLGYADGLNRVIDSQFYALTHKDSTIIVSNLEEASRGKTWVEDLGRSGEPHVGSTLIIGTHSSDWLKGGSGNDFLEGLGGDDRFRDDGGFNILLGGQGHNTFELQKPLQNFSFANDGDGTLYVRDAYGGISLTRDIGALVSKEAGSWWGSKEITWGVTAKGLSNGSELTQYNHSLSGDGYGNALHASADGDWLFGLGGNDSLISDKGHVTFVGGAGNDVMTALGGNNTFLFSGAFGFDAVNGYQGNDKLVFMGVEGAGQGYDYKQHASQSGDDTVLKIGDYAVTLIGVGVANLSDSSIMFA
notes: pET-22b(+) NdeI/XhoI, His tag kept (C-terminal by vector)
- Km: 360 µM
- kcat: 35.7 s⁻¹
